# Laboratory results from US20240400693A1 (Chugai, published 2024).
# Changes are numbered by the printed parent chain.
# B1: DQN0344H0976/L0591//DQN0385H1270/L0681-F6 (bispecific antibody)
# heavy 1: QVQLVESGGGVVQPGGSLRLSCAASGFTFSSAYWMVWVRQAPGQGLEWMGAVYGGSDTTYYAKWTEGRFTISRDTSKNTLYLQMNSLRAEDTAVYYCAREPLNYYYYGELNLWGQGTLVTVSSASTKGPSVFPLAPSSKSTSGGTAALGCLVKDYFPEPVTVSWNSGALTSGVHTFPAVLKSSGLYSLSSVVTVPSSSLGTQTYICNVNHKPSNTKVDKRVEPKSCDKTHTCPPCPAPELRRGPSVFLFPPKPKDTLMISRTPEVTCVVVDVSHEDPEVKFNWYVDGVEVHNAKTKPREEQYNSTYRVVSVLTVLHQDWLNGKEYKCKVSNKALPAPIEKTISKAKGQPREPQVYTLPPSREEMTKNQVSLTCLVKGFYPSDIAVEWESNGQPENNYKTTPPYLDSDGSFFLYSKLTVDKSRWQEGNVFSCSVLHEALHAHYTREELSLSP
# light 1: DIQMTQSPSSLSASVGDRVTITCQATEEIYSGLAWYQQKPGKAPKLLIYYVSTLYEGIPARFSGSGSGTDFTLTISSLEPEDFAVYYCQTYEDVSAVTFGQGTKVEIKRTVAAPSVFIFPPSDEQLKSGTAEVVCLLNNFYPREAKVQWKVDNALQSGNSEESVTEQDSKDSTYSLSSTLTLSKADYEKHKVYACEVTHQGLSSPVTKSFNRGEC
# heavy 2: QVQLVESGGGVVQPGRSLRLSCAASGFTFSEWYFMSWVRQAPGKGLEWVASIDTGSGSIDYAEWVEGRFTISRDNSKNTLYLQMNSLRAEDTAVYYCARDIGIDYNFWGPGTLVTVSSASTKGPSVFPLAPSSKSTSGGTAALGCLVEDYFPEPVTVSWNSGALTSGVHTFPAVLESSGLYSLSSVVTVPSSSLGTKTYICNVNHKPSNTKVDKRVEPKSCDKTHTCPPCPAPELRRGPSVFLFPPKPKDTLMISRTPEVTCVVVDVSHEDPEVKFNWYVDGVEVHNAKTKPREEQYNSTYRVVSVLTVLHQDWLNGKEYKCKVSNKALPAPIEKTISKAKGQPREPQVYTLPPSRKEMTKNQVSLTCLVKGFYPSDIAVEWESNGQPENNYKTTPPYLDSDGSFFLYSKLTVDKSRWQQGNVFSCSVLHEALHAHYTRKELSLSP
# light 2: DIQMTQSPSSLSASVGDRVTITCQTTQSISSYLNWYQQKPGQPPKLLIYYASTKAEGIPARFSGSGLGTDFTLTISSLEPEDFAVYYCHYGISKVSFGQGTKVEIKRTVAAPSVFIFPPSDEQLKSGTAKVVCLLNNFYPREAKVQWKVDNALQSGNSKESVTEQDSKDSTYSLSSTLTLSKADYEKHKVYACEVTHQGLSSPVTKSFNRGEC
# B2: DQN0344H1013/L0620//DQN0385H1270/L0681-F6 (bispecific antibody)
# heavy 1: B1 heavy 1 with G16R, L112V
# light 1: B1 light 1 with E28N, Y55A, E56Y
# heavy 2: B1 heavy 2
# light 2: B1 light 2
# B3: DQN0344H1013/L0620//DQN0385H1353/L0681-F6 (bispecific antibody)
# heavy 1: B1 heavy 1 with G16R, L112V
# light 1: B1 light 1 with E28N, Y55A, E56Y
# heavy 2: B1 heavy 2 with S30A
# light 2: B1 light 2
# B4: DQN0344H0976/L0591//DQN0385H1527/L0605-F6 (bispecific antibody)
# heavy 1: B1 heavy 1
# light 1: B1 light 1
# heavy 2: B1 heavy 2 with S30A, E31S
# light 2: B1 light 2 with L67S
# B5: DQN0344H0976/L0591//DQN0385H1352/L0681-F6 (bispecific antibody)
# heavy 1: B1 heavy 1
# light 1: B1 light 1
# heavy 2: B1 heavy 2 with T28E
# light 2: B1 light 2
# B6: DQN0344H0976/L0591//DQN0385H1270/L0722-F6 (bispecific antibody)
# heavy 1: B1 heavy 1
# light 1: B1 light 1
# heavy 2: B1 heavy 2
# light 2: B1 light 2 with E79Q
# B7: DQN0344H0976/L0591//DQN0385H1255/L0605-F6 (bispecific antibody)
# heavy 1: B1 heavy 1
# light 1: B1 light 1
# heavy 2: B1 heavy 2 with E63G, G67E
# light 2: B1 light 2 with L67S
# Legend:
# [1] = molecular target: HLA-DQ2.5 on IHW09023 cells loaded with gamma 1 gliadin peptide (human; wheat); assay: cell-based or functional assay
# [2] = molecular target: HLA-DQ2.5 on IHW09023 cells loaded with gamma 4d gliadin peptide (human; wheat); assay: cell-based or functional assay
# [3] = molecular target: HLA-DQ2.5 on IHW09023 cells loaded with gamma 3 gliadin peptide (human; wheat); assay: cell-based or functional assay
# [4] = molecular target: HLA-DQ2.5 on IHW09023 cells loaded with 33mer gliadin peptide (human; wheat); assay: cell-based or functional assay
# [5] = molecular target: HLA-DQ2.5 on IHW09023 cells loaded with gamma 4a gliadin peptide (human; wheat); assay: cell-based or functional assay
# [6] = molecular target: HLA-DQ2.5 on IHW09023 cells loaded with gamma 2 gliadin peptide (human; wheat); assay: cell-based or functional assay
# [7] = molecular target: HLA-DQ2.5 on IHW09023 cells loaded with BC hordein peptide (human; barley); assay: cell-based or functional assay
# [8] = molecular target: HLA-DQ2.5 on IHW09023 cells loaded with omega1/2 gliadin peptide (human; wheat); assay: cell-based or functional assay
# HLA-DQ5.1 on Ba/F3 cells = molecular target: T1, HLA-DQ5.1 on Ba/F3 cells (human, limits assumed); assay: FACS, Ba/F3 cells; raw MFI
# T1 construct: whole, on cells; also called Ba/F3-HLA-DQ5.1
# T1 MHC II alpha: not shown
# T1 MHC II beta: not shown
# HLA-DQ6.3 on Ba/F3 cells = molecular target: T2, HLA-DQ6.3 on Ba/F3 cells (human, UniProt P01920 33-230, limits assumed); assay: FACS, Ba/F3 cells; raw MFI
# T2 construct: whole, on cells; also called Ba/F3-HLA-DQ6.3
# T2 MHC II alpha: not shown
# T2 MHC II beta: not shown
# HLA-DP on Ba/F3 cells = molecular target: T3, HLA-DP on Ba/F3 cells (human, UniProt P20036 29-222; P04440 30-225, limits assumed); assay: FACS, Ba/F3 cells; raw MFI
# T3 construct: whole, on cells; also called Ba/F3-HLA-DP
# T3 sequence (P20036 29-222 limits assumed, chain 1 of 4, other chains not shown): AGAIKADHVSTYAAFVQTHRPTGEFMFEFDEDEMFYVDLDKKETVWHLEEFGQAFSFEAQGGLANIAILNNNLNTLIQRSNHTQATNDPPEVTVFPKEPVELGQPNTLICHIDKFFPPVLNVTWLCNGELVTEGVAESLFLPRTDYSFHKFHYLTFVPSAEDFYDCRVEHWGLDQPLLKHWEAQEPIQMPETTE
# T3 sequence (P04440 30-225 limits assumed, chain 2 of 4, other chains not shown): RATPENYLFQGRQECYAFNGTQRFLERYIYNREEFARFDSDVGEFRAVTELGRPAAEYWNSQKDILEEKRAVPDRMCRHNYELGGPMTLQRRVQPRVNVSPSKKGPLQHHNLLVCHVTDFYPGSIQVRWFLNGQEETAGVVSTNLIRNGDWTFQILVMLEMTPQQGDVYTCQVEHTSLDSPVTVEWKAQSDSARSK
Binder,"IC50 (ng/mL), γ1 gliadin TCR, 250 nM γ1 gliadin [1] [ng/mL]","IC50 (ng/mL), γ4d gliadin TCR, 100 µM γ4d gliadin [2] [ng/mL]","IC50 (ng/mL), γ3 gliadin TCR, 100 µM γ3 gliadin [3] [ng/mL]","IC50 (ng/mL), α1b gliadin TCR, 250 nM 33mer gliadin [4] [ng/mL]","IC50 (ng/mL), α2 gliadin TCR, 250 nM 33mer gliadin [4] [ng/mL]","IC50 (ng/mL), γ4a gliadin TCR, 25 µM γ4a gliadin [5] [ng/mL]","IC50 (ng/mL), γ2 gliadin TCR, 250 nM γ2 gliadin [6] [ng/mL]","IC50 (ng/mL), BC hordein TCR, 250 nM BC hordein [7] [ng/mL]","IC50 (ng/mL), ω1 gliadin TCR, 25 µM ω1/2 gliadin [8] [ng/mL]","IC50 (ng/mL), ω2 gliadin TCR, 250 nM ω1/2 gliadin [8] [ng/mL]","IC50 (ng/mL), α1a gliadin TCR, 250 nM 33mer gliadin [4] [ng/mL]",binding result (HLA-DQ5.1 on Ba/F3 cells),binding result (HLA-DQ6.3 on Ba/F3 cells),binding result (HLA-DP on Ba/F3 cells)
B1,1.05,11.8,2.4,1.36,0.34,749,182,12,2.07,0.26,,,,
B2,1.11,13.1,2.63,1.78,0.33,1160,322,7.54,2.51,0.2,0.38,,,
B3,0.56,2.06,2.29,1.13,0.34,1250,100,8.78,1.17,0.17,0.29,no binding (tested: 0.05 micro g/mL),no binding (tested: 0.05 micro g/mL),no binding (tested: 0.05 micro g/mL)
B4,0.59,11.4,2.09,1.84,0.51,1210,637,6.54,3.25,0.3,0.7,,,
B5,1.11,9.82,2.99,1.37,0.31,802,284,10.8,1.48,0.24,0.29,,,
B6,0.66,16.3,2.88,1.41,0.31,726,281,13.2,2.55,0.26,0.38,,,
B7,0.91,12.4,2.31,2.66,0.56,1430,440,13.6,2.62,0.25,0.49,,,
